A word on the Km: it is the concentration of substrate that gives half-maximal velocity. One may read the kcat as the number of substrate molecules converted per active site and unit of time at saturation. As a reminder, the kcat/Km is the turnover number divided by the Michaelis constant.

In PMC5122715, “A Novel, Molybdenum-Containing Methionine Sulfoxide Reductase Supports Survival of Haemophilus influenzae in an In vivo Model of Infection” (Frontiers in Microbiology, 2016) one finds Km, kcat and kcat/Km data, which are given here for 1 substance.

What all share (experiment): purified protein
Data set [1] has as its system O=C(O)CCCC[C@H]1[C@H]2NC(=O)N[C@H]2C[S@+]1[O-]. The settings on record: 0.2 mM benzyl viologen, 0.3 mM dithionite, 20 mM sodium phosphate pH 6.8, 37°C.
The test system of a further data set is C[S+]([O-])CCC(N)C(=O)O. The settings on record: 0.2 mM benzyl viologen, 0.3 mM dithionite, 20 mM sodium phosphate pH 6.8, 37°C, concentration of the whole racemic mixture.
The subject of the next data set is C[S+](C)[O-]. The settings on record: 0.2 mM benzyl viologen, 0.3 mM dithionite, 20 mM sodium phosphate pH 6.8, 37°C.
The test system of a further data set is C[N+](C)(C)[O-]. Conditions: 0.2 mM benzyl viologen, 0.3 mM dithionite, 20 mM sodium phosphate pH 6.8, 37°C.

On to “HI rTorZ (TorZ/MtsZ) (Haemophilus influenzae Rd KW20)”, for which the Km in data set [1] is 1520 ± 280 µM; in the data set with C[S+]([O-])CCC(N)C(=O)O, 410 ± 80 µM; with C[S+](C)[O-] it was 140 ± 50 µM; in the data set on C[N+](C)(C)[O-], 6700 ± 2000 µM. In addition, the catalytic constant (kcat) in data set [1] stood at 183 ± 10.9 s⁻¹; in the data set on C[S+]([O-])CCC(N)C(=O)O it was 91.7 ± 4.4 s⁻¹; with C[S+](C)[O-], 85.4 ± 9.1 s⁻¹; in the data set with C[N+](C)(C)[O-] it was 435 ± 52.1 s⁻¹. Moreover, the kcat/Km in data set [1] was 120000 M⁻¹ s⁻¹; in the data set with C[S+]([O-])CCC(N)C(=O)O, 224000 M⁻¹ s⁻¹; in the data set on C[S+](C)[O-] it was 650000 M⁻¹ s⁻¹; in the data set on C[N+](C)(C)[O-] it was 64900 M⁻¹ s⁻¹.
